The text below walks through data of IntAct's records for PubMed 34502139.

B1: Mitochondrial import receptor subunit TOM70 (Homo sapiens), O94826 (parent)
chain: MAASKPVEAAVVAAAVPSSGSGVGGGGTAGPGTGGLPRWQLALAVGAPLLLGAGAIYLWSRQQRRREARGRGDASGLKRNSERKTPEGRASPAPGSGHPEGPGAHLDMNSLDRAQAAKNKGNKYFKAGKYEQAIQCYTEAISLCPTEKNVDLSTFYQNRAAAFEQLQKWKEVAQDCTKAVELNPKYVKALFRRAKAHEKLDNKKECLEDVTAVCILEGFQNQQSMLLADKVLKLLGKEKAKEKYKNREPLMPSPQFIKSYFSSFTDDIISQPMLKGEKSDEDKDKEGEALEVKENSGYLKAKQYMEEENYDKIISECSKEIDAEGKYMAEALLLRATFYLLIGNANAAKPDLDKVISLKEANVKLRANALIKRGSMYMQQQQPLLSTQDFNMAADIDPQNADVYHHRGQLKILLDQVEEAVADFDECIRLRPESALAQAQKCFALYRQAYTGNNSSQIQAAMKGFEEVIKKFPRCAEGYALYAQALTDQQQFGKADEMYDKCIDLEPDNATTYVHKGLLQLQWKQDLDRGLELISKAIEIDNKCDFAYETMGTIEVQRGNMEKAIDMFNKAINLAKSEMEMAHLYSLCDAAHAQTEVAKKYGLKPPTL
B2: Mitochondrial import receptor subunit TOM70 (Homo sapiens), O94826 (parent)
chain: B1 chain
partner: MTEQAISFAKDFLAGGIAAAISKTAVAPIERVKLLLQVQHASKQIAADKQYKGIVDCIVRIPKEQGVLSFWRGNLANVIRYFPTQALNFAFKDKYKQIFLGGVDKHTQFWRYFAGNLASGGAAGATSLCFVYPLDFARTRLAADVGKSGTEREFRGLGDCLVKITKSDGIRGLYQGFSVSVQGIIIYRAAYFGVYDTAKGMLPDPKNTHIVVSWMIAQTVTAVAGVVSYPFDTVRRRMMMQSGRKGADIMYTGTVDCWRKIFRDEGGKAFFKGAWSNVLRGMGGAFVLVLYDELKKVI

In one experiment the parent is B1. Particulars: with hs90b_human HSP90AB1, P08238.
Chain of hs90b_human HSP90AB1, P08238 (P08238 whole entry): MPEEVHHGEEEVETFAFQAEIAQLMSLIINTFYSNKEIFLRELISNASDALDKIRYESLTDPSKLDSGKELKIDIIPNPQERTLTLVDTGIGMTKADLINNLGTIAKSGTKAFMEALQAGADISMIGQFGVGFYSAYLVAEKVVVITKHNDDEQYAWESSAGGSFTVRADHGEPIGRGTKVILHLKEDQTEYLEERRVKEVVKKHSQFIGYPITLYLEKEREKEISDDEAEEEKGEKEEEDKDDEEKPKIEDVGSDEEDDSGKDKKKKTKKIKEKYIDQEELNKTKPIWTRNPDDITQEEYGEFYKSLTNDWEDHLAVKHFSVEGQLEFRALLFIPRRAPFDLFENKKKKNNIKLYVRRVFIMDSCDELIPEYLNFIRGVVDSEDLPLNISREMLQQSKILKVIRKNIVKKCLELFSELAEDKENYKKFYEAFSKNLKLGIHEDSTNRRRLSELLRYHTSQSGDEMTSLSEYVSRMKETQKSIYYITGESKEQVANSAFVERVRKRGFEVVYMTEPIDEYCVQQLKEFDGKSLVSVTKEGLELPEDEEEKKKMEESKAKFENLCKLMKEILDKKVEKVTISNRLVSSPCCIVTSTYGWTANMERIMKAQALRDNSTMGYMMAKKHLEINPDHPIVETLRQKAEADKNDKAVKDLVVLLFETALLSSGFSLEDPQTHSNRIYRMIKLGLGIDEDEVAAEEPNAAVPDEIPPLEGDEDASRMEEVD
For the variant E477A, the “effect of a mutation on the interaction” value is listed as “decreasing interaction strength”.
On the same count and under the same terms, as for R192A, the entry is “decreasing interaction strength”.

In the next experiment the parent is B2. Particulars: with adt3_human SLC25A6, P12236.
As for E477A, the “effect of a mutation on the interaction” value is “decreasing interaction strength”.
